Measured values taken from publication PMC7679444, “Regulation of cytokine signaling through direct interaction between cytokine receptors and the ATG16L1 WD40 domain” (Nature Communications, 2020).
One block for each binder: values may come before it. Where no end group is shown, it is not given here. Tds = not defined here

Target: T1, GST-HA-ATG16L1(231–607) (human, UniProt Q676U5 231-607)
T1 construct: ATG16L1, human, residues 231-607 (results and legend); the methods name the construct 230-607; includes the WD40 domain (WDD, 320-607); Limits differ between results (231-607) and methods (230-607); also called GST-HA-ATG16L1-230-607; recombinant protein that includes the WDD; source: HEK-293T, retrovirally transduced, purified (GSH-agarose, eluted with reduced GSH, concentrated)
Assay: peptide or protein array; peptides immobilised on glass slides through the N-terminal end with a Tds spacer (JPT); GST-HA-ATG16L1 fragment in PBS/0,05% Tween-20 with 5% BSA, 20-800 nM, 2 h at RT plus overnight at 4 °C; detected with anti-HA and anti-GST and Cy5-labelled secondary antibodies; binding normalised to the wild-type peptide
Conditions: both partners purified

T1 sequence (Q676U5 231-607): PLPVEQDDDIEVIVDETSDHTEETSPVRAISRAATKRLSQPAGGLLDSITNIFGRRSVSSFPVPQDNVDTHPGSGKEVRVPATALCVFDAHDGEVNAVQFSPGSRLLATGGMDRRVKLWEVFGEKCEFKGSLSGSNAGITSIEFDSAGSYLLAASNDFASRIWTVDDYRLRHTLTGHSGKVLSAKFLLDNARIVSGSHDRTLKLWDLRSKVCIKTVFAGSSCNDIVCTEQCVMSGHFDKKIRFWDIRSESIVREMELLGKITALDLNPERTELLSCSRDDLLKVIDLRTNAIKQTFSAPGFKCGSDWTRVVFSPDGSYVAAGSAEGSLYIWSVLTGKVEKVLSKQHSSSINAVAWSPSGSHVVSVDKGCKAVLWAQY

B1: TMEM59 peptide 268–280 with decreased E272-Y277 distance (ELY) (peptide, UniProt Q9BXS4 268-280, looked up)
peptide: Tds-YVPSELYGDL
modifications: reading uncertain
notes: TMEM59 residues 268-280 with native residues between E272 and Y277 deleted so that one (L) is left; only the changed stretch is printed; source: synthetic peptide on microarray, ordered from JPT (Germany)
binding result: binds

B2: TMEM59 peptide 268–280 with increased E272-Y277 distance (EKAALASAIY) (peptide, UniProt Q9BXS4 268-280, looked up)
peptide: Tds-YVPSEKAALASAIYGDL
modifications: reading uncertain
notes: TMEM59 residues 268-280 with extra alanines between E272 and Y277; only the changed stretch is printed; source: synthetic peptide on microarray, ordered from JPT (Germany)
binding result: binds

B3: TMEM59 peptide 268–280 with decreased Y268-E272 distance (YE) (peptide, UniProt Q9BXS4 268-280, looked up)
peptide: Tds-YEKLSIYGDL
modifications: reading uncertain
notes: TMEM59 residues 268-280 with the native residues between Y268 and E272 deleted; only the changed stretch is printed; also called YE (Y268-E272); source: synthetic peptide on microarray, ordered from JPT (Germany)
binding result: binds

The next lines start with the values.

binding result: binds
B4: TMEM59 peptide (residues 268–280), wild type (peptide, UniProt Q9BXS4 268-280, looked up)
peptide: Tds-YVPSEKLSIYGDL
modifications: reading uncertain
notes: TMEM59 intracellular domain, residues 268-280; also called active TMEM59 peptide; source: synthetic peptide on microarray, ordered from JPT (Germany)

binding result: binds
B5: TMEM59 peptide 268–280 with increased Y268-E272 distance (YVAPAASE) (peptide, UniProt Q9BXS4 268-280, looked up)
peptide: Tds-YVAPAASEKLSIYGDL
modifications: reading uncertain
notes: TMEM59 residues 268-280 with extra alanines between Y268 and E272; only the changed stretch is printed; also called YVAPAASE (Y268-E272); source: synthetic peptide on microarray, ordered from JPT (Germany)
